From patent US20230193332A1

T1: NdmA (wild-type caffeine N1-demethylase) (UniProt H9N289)
T1 sequence (looked up): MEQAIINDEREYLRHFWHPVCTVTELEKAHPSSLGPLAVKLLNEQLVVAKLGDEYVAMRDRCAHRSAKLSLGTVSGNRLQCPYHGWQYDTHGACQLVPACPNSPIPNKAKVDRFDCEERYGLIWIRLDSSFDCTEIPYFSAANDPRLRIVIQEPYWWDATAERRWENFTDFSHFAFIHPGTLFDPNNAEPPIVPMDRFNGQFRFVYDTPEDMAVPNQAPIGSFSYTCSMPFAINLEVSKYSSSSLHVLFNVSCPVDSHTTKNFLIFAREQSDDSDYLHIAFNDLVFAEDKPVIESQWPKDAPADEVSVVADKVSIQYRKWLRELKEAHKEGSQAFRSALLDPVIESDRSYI

T2: NdmB (wild-type theobromine N3-demethylase) (UniProt H9N290)
T2 sequence (looked up): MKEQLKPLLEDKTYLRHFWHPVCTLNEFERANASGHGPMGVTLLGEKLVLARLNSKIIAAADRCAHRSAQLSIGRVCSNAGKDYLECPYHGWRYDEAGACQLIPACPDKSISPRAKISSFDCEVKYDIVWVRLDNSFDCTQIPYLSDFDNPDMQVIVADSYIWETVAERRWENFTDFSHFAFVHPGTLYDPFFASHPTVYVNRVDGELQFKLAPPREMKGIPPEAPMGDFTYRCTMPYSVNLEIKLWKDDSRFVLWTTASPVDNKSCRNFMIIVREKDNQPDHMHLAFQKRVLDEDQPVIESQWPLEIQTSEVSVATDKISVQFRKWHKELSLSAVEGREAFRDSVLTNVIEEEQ


Experiments:
[1] = target: T1, NdmA (wild-type caffeine N1-demethylase); test: cell-based or functional assay
[2] = target: T2, NdmB (wild-type theobromine N3-demethylase); test: cell-based or functional assay

| Binder | N1-demethylase activity in NdmA cells, lower than in cells with the wild type reductase [1] | remaining N-demethylase activity in the in vivo assays (% of the wild-type enzyme) [1] | N3-demethylase activity in NdmB cells, reduction [2] | remaining N-demethylase activity in the in vivo assays (% of the wild-type enzyme) [2] |
| --- | --- | --- | --- | --- |
| NdmD V541W mutant (NdmDW) (enzyme, UniProt H9N291 1-588, looked up) MNKLDVNQWFPIATTEDLPKRHVFHATLLGQEMAIWRDDSGSVNAWENRCPHRGLRLTLGANTGNELRCQYHGWTYESGTGGCTFVPAHRDAPPPNAARVNTFPVREKHGFIWTTLGQPPGEPISILDDAQLVNAVKTNLHSVVIDADIDGVVSVLRQNLSAFIDVFGAASAEDLHLKSMLQDRGILVTRSGSIAIHFYMQRSTISKCVVHAQVLTPGRPGYELQKNYSYAMNVIRRAAEAVATDLISITDISDQTIEKLEVVRENMTKAPPTHYICEVVTRTQETGDINSYWLKPIGYPLPAFSPGMHISITTPEGSIRQYSLVNGPDERESFIIGVKKEIQSRGGSRSMHEDVKVGTQLKVTLPRNGFPLVQTRKHPILVAGGIGITPILCMAQALDQQGSSYEIHYFARAFEHVPFQDRLTALGDRLNVHLGLGPDETRAKLPDIMEIHNAQDVDVYTCGPQPMIETVSAVALAHGIAEESIRFEFFSKKNDVPVSDEEYEVELKKTGQIFTVSPGSTLLQACLDNDVRIEASCEQGWCGTCITPVVSGDLEHHDTYLSKKERESGKWIMPCVSRCKSKKIVLDL | 7 % lower | > 60 | 36 % reduced | > 60 |
| NdmD V541R mutant (NdmDR) (enzyme, UniProt H9N291 1-588, looked up) MNKLDVNQWFPIATTEDLPKRHVFHATLLGQEMAIWRDDSGSVNAWENRCPHRGLRLTLGANTGNELRCQYHGWTYESGTGGCTFVPAHRDAPPPNAARVNTFPVREKHGFIWTTLGQPPGEPISILDDAQLVNAVKTNLHSVVIDADIDGVVSVLRQNLSAFIDVFGAASAEDLHLKSMLQDRGILVTRSGSIAIHFYMQRSTISKCVVHAQVLTPGRPGYELQKNYSYAMNVIRRAAEAVATDLISITDISDQTIEKLEVVRENMTKAPPTHYICEVVTRTQETGDINSYWLKPIGYPLPAFSPGMHISITTPEGSIRQYSLVNGPDERESFIIGVKKEIQSRGGSRSMHEDVKVGTQLKVTLPRNGFPLVQTRKHPILVAGGIGITPILCMAQALDQQGSSYEIHYFARAFEHVPFQDRLTALGDRLNVHLGLGPDETRAKLPDIMEIHNAQDVDVYTCGPQPMIETVSAVALAHGIAEESIRFEFFSKKNDVPVSDEEYEVELKKTGQIFTVSPGSTLLQACLDNDVRIEASCEQGRCGTCITPVVSGDLEHHDTYLSKKERESGKWIMPCVSRCKSKKIVLDL | 30 % lower | > 60 | 20 % reduced | > 60 |
